Article PMC6862464, “Structural Insights into AQP2 Targeting to Multivesicular Bodies” (International Journal of Molecular Sciences, 2019)
Where a chain is given by its changes, count along the chain named.

Experiments:
[1] = target: T1, full-length human LIP5 K71A (human, UniProt Q9NP79 1-307, K71A); experiment: other fluorescence titration; Alexa 488-labeled, dephosphorylated AQP2 (around 1 uM) in the cuvette, titrated with unlabeled LIP5; total fluorescence; 20 mM Tris-HCl pH 8, 300 mM NaCl, 0.2% OGNG; triplicate titrations; conditions: both partners purified
T1 construct: LIP5, human, full length, point mutant; spacer before the TEV site and His tag, as in m2; Mutant of m2; dimer as said of full-length LIP5 (cited); source: E. coli BL21*(DE3), purified (HisTrap, SEC)
T1 sequence: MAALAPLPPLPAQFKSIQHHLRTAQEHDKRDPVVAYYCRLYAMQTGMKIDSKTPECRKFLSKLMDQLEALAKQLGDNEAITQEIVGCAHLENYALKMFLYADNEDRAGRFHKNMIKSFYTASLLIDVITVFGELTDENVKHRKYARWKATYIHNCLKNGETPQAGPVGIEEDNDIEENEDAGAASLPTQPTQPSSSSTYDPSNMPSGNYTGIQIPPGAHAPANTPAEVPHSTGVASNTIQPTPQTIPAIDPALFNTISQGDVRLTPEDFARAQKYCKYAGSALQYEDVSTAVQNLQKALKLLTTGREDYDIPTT

[2] = target: T2, full-length human LIP5 D65A (human, UniProt Q9NP79 1-307, D65A); experiment: as above; conditions: both partners purified
T2 construct: LIP5, human, full length, point mutant; spacer before the TEV site and His tag, as in m2; Mutant of m2; dimer as said of full-length LIP5 (cited); source: E. coli BL21*(DE3), purified (HisTrap, SEC)
T2 sequence: T1 sequence with D65A, A71K

B1: human aquaporin 2 (AQP2), wild-type (natural protein, UniProt P41181 1-271, looked up)
chain: MWELRSIAFSRAVFAEFLATLLFVFFGLGSALNWPQALPSVLQIAMAFGLGIGTLVQALGHISGAHINPAVTVACLVGCHVSVLRAAFYVAAQLLGAVAGAALLHEITPADIRGDLAVNALSNSTTAGQAVTVELFLTLQLVLCIFASTDERRGENPGTPALSIGFSVALGHLLGIHYTGCSMNPARSLAPAVVTGKFDDHWVFWIGPLVGAILGSLLYNYVLFPPAKSLSERLAVLKGLEPDTDWEEREVRRRQSVELHSPQSLPRGTKA
modifications: cysteine residues labeled with C5 maleimide Alexa 488; dephosphorylated with alkaline phosphatase before labeling
notes: concentrations and molar ratios seem to count monomers; His-tag is called uncleavable; also called WT; labeled AQP2; source: Pichia pastoris, purified (HisTrap, SEC) in OGNG; not shown: His-tag, N-terminal, kept
- Kd [1]: 137 nM
- Kd [2]: 149 nM
